B1: TNNI2 (parent)
chain: DWRKNIEEKSGMEGRKKMFESES

Variants of: B1
Assay: protein stability index of a GFP-peptide fusion (GPS, HEK-293T) (PSI 1-6); higher = more stable
Details: c terminus: native
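Also: lentivirally expressed fusions sorted by FACS into six bins by GFP to DsRed ratio, PSI derived from sequencing read proportions per bin multiplied by bin number.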

Protein stability index: each site, then its substitutions
E13: A 2.01, S 1.77, L 2.47, N 2.75, G 3.41, C 2.78, D 2.52, F 1.73, T 3.7, P 2.34, W 1.81, H 2.19, V 2.33, K 2.94, M 2.03, R 2.72
G14: P 2.56, S 1.63, W 2.78, F 1.93, C 2.56, D 1.67, E 1.38, M 1.99, A 1.43, N 2.22, R 2.55, K 1.31, T 1.41, H 1.94
K17: D 2.83, E 2.36, R 1.97, H 3.84, L 2.01, P 3.08, C 2.41, I 3.32, N 2.56, M 2.42, T 2.39, S 2.82, A 2.25, Q 2.39, V 3.07
S10: C 1.81, P 2.52, V 1.02, K 2.18, L 1.58, A 1.7, N 2.54, M 2.16, E 2.28, I 2.89, G 2.42, H 2.29, Y 2.82, R 2.55, T 2.47
E7: G 1.83, Q 2.56, A 2.16, W 2.01, T 2.82, N 2.79, Y 2.12, S 1.76, H 1.84, C 2.01, L 2.17, V 2.26, K 2.62, I 1.75, P 2.85, D 3, M 2.25, F 1.77
M12: S 2.5, D 2.52, W 1.39, L 2.13, P 1.96, C 2.71, F 2.38, Y 2.94, R 2.74, Q 2.02, K 2.72, T 3.47, I 3.01, H 2.42
N5: E 2.28, I 2.32, V 2.04, A 3.79, L 2.57, R 2.95, P 3.97, S 2.31, T 3.41, W 1.64, G 2.5, C 2.7, Y 1.62, H 2.07, M 2.37, F 2.43
M18: R 4.45, H 2.7, N 4.47, E 4.34, V 2.39, G 5.42, L 1.13, K 2.78, W 1.66, A 2.26, Y 1.85, I 1.98, T 4.9, C 3.89
F19: D 5.43, H 3.76, N 5.46, P 4.51, W 1.48, Y 2.22, Q 4.78, C 4.42, R 4.97, E 5.03, I 4.22, A 5.06, S 5.6, M 2.82, K 5.64
I6: M 2.52, T 3.26, Q 3.26, R 2.09, C 2.54, S 2.54, P 3.72, G 2.41, N 2.54, K 2.23, A 2.59, V 2.09, Y 1.88, H 2.12
E20: C 2.67, P 5.16, L 2.33, D 3.65, R 2.22, Q 3.54, K 2.92, Y 3.81, A 2.88, I 2.89, S 4.04, M 2.75, W 3.71, T 2.94, G 4.73, H 4.26
D1: T 2.37, P 2.57, I 2.63, Y 2.24, A 2.91, M 1.57, K 2.01, H 2.27, W 3.07, G 2.28, Q 2.65, F 1.9, N 2.79, R 2.79, S 1.79, L 1.9, V 2.37
W2: L 2.85, Q 3.67, K 1.95, H 2.95, Y 2.93, E 3.25, G 2.51, C 2.88, F 2.55, N 2.25, I 2.53, V 2.96, T 2.32, D 3.12, P 3.59
R3: Y 1.64, T 2.48, P 1.84, V 2.08, N 2.48, K 2.34, Q 2.84, S 2.04, A 2.09, F 2.06, D 2.63, L 1.74, M 3.28, H 2.88
E22: D 3.81, W 3.86, P 2.06, H 4, G 5.04, S 5.13, I 3.3, Q 4.33, K 4.67, L 3.17, T 5.25, R 1.58, C 3.71, Y 3.84, N 4.44, V 3.77
E8: H 2.09, G 2.06, S 1.99, W 1.52, K 2.74, R 1.84, I 2.41, Q 2.17, F 2.06, Y 2.16, C 1.63, L 2.47, N 3.61, V 2.66, P 3.03
K9: T 2.54, F 2.44, P 1.75, S 3.35, Y 1.93, Q 1.68, L 2.51, I 2.39, H 2.4, C 1.84, W 2.34, E 2.13
R15: T 2.7, L 2.56, Q 3.12, K 3.5, H 2.15, N 2.77, E 2.8, A 2.59, D 2.44, Y 2.15, P 2.98
S23: H 2.87, N 4.46, K 2.63, R 2.15, Y 2.59, C 1.53, I 1.59, F 3.02, T 1.42, G 3.42, P 2.42
G11: Y 1.45, A 2.57, N 1.94, Q 1.18, R 2.35, H 1.76, L 2.77, C 1.52, K 3.5, V 2, T 1.58
K4: G 3.03, A 3.61, Y 2.56, S 3.03, E 2.59, F 2.37, I 2.13, W 2.13, C 2.32, P 2.61, V 3.15, N 3.23, T 2.98, H 2.62, Q 3.21
S21: D 5.47, H 2.9, N 3.39, P 1.37, Q 4.96, E 5.2, Y 4.05, W 3.35, A 1.5, L 3.92, M 3.92, F 4.49, V 2.39, K 3.49, R 3.41, T 4.47
K16: S 1.98, D 3.19, G 1.78, I 1.83, N 1.95, C 2.19, Q 2.19, V 2.32, E 2.39, M 1.92, Y 1.24, R 2.3, T 2.07, W 1.85
